# B1: hCD22-31: human CD22 CAR (protein)
# scFv: QVQLVQSGAEVKKPGASVKVSCKASGYTFTSYDINWVRQATGQGLEWMGWMNPNSGNTGYAQKFQGRVTMTRNTSISTAYMELSSLRSEDTAVYYCARGDSNYWSYYGMDVWGQGTLVTVSSGGGGSGGGGSGGGGSGGGGSQSVLTQPRSVSGSPGQSVTISCTGTSSDVGGYNYVSWYQQHPGEAPKLIIYDADKRPSGISNRFSSGKSGNTASLTISGLQVEDEADYYCCSYAGGSTWVFGGGTKVTVL
# B2: CD22-59: human CD22 scFv SEQ ID NO 134 (protein, listed as Homo sapiens)
# scFv: EVQLQQSGPGLVKPSQTLSLTCAISGDSVLSNSDTWNWIRQSPSRGLEWLGRTYHRSTWYDDYASSVRGRVSINVDTSKNQYSLQLNAVTPEDTGVYYCARDRLQDGNSWSDAFDVWGQGTMVTVSSGGGGSGGGGSGGGGSQSALTQPASVSGSPGQSITISCTGSSSDIGGFNYVSWYQQHAGEAPKLMIYEVTNRPSGVSDRFSGSKSDNTASLTISGLQAEDEADYYCSSYASGSPLYVFGTGTKVTVLG
# B3: hCD22-2: human CD22 CAR (protein)
# scFv: EVQLQQSGPGLVKPSQTLSLTCAISGDSVSSNSAAWNWIRQSPSRGLEWLGRTYYRSKWYNDYAVSVKSRITINPDTSKNQFSLQLNSVTPEDTAVYYCARDLGWIAVAGTFDYWGQGTLVTVSSGGGGSGGGGSGGGGSQSALTQPASVSGSPGQSITISCTGTSSDVGGYNYVSWYQQHPGKAPKLMIYDVSKRPSGVSNRFSGSKSGNTASLTISGLQAEDEADYYCSSYTSSSLNHVFGTGTKVTVL
# B4: CD22-53: human CD22 CAR, scFv SEQ ID NO 131 (protein)
# scFv: EVQLQQSGPGLVKPSQTLSLTCAISGDSVSSNSAAWNWIRQSPSRGLEWLGRTYYRSKWYSDYAVSVKSRITINPDTSKNQFSLQLNSVTPEDTAVYYCARDPYDFWSGYPDAFDIWGQGTMVTVSSGGGGSGGGGSGGGGSQSALTQPASVSGSPGQSITISCTGTSSDVGGYNYVSWYQQHPGKAPKVIISEVNNRPSGVSHRFSGSKSGNTASLTISGLQAEDEADYFCSSYTSGRTLYVFGTGSKVTVLG
# B5: hCD22-5: human CD22 CAR (protein)
# scFv: EVQLVESGGGLVQPGRSLRLSCAASGFTFDDYAMHWVRQAPGKGLEWVSGISWNSGSIGYADSVKGRFTISRDNAKNSLYLQMNSLRAEDTALYYCAKDKGGGYYDFWSGSDYWGQGTLVTVSSGGGGSGGGGSGGGGSSSELTQDPAVSVALGQTVRITCQGDSLRSYYASWYQQKPGQAPVLVIYGKNNRPSGIPDRFSGSSSGNTASLTITGAQAEDEADYYCNSRDSSGWVFGGGTKLTVL
# B6: CD22-58: human CD22 scFv SEQ ID NO 133 (protein, listed as Homo sapiens)
# scFv: EVQLQQSGPGLVNPSQTLSITCAISGDSVSSNSAAWNWIRQSPSRGLEWLGRTFYRSKWYNDYAVSVKGRITISPDTSKNQFSLQLNSVTPEDTAVYYCAGGDYYYGLDVWGQGTTVTVSSGGGGSGGGGSGGGGSQSALTQPASVSGSPGQSITISCTGSSSDVGGYNSVSWYQQHPGKAPKLMIYEVINRPSGVSHRFSGSKSGNTASLTISGLQAEDEADYYCSSYTSSSTYVFGTGTKVTVLG
# B7: hCD22-10: human CD22 CAR (protein)
# scFv: EVQLQQSGPGLVKPSQTLSLTCAISGDSVLSNSDTWNWIRQSPSRGLEWLGRTYHRSTWYDDYASSVRGRVSINVDTSKNQYSLQLNAVTPEDTGVYYCARDRLQDGNSWSDAFDVWGQGTMVTVSSGGGGSGGGGSGGGGSQSALTQPASVSGSPGQSITISCTGTSSDVGGYNYVSWYQQHPGKAPKLMIYDVSNRPSGVSNRFSGSKSGNTASLTISGLQAEDEADYYCSSYTSSSTLVYVFGTGTKVTVL
# B8: CD22-57: human CD22 scFv SEQ ID NO 132 (protein, listed as Homo sapiens)
# scFv: EVQLQQSGPGLVKPSQTLSLTCAISGDSVSNNNAAWNWIRQSPSRGLEWLGRTYHRSTWYNDYVGSVKSRITINPDTSKNQFSLQLNSVTPEDTAVYYCARETDYGDYGAFDIWGQGTTVTVSSGGGGSGGGGSGGGGSQSALTQPASVSGSPGQSITISCTGSRNDIGAYESVSWYQQHPGNAPKLIIHGVNNRPSGVFDRFSVSQSGNTASLTISGLQAEDEADYYCSSHTTTSTLYVFGTGTKVTVLG
# B9: CD22-60: human CD22 scFv SEQ ID NO 135 (protein, listed as Homo sapiens)
# scFv: EVQLQQSGPGLVKPSQTLSLTCAISGDSVLSNSDTWNWIRQSPSRGLEWLGRTYHRSTWYDDYASSVRGRVSINVDTSKNQYSLQLNAVTPEDTGVYYCARDRLQDGNSWSDAFDVWGQGTMVTVSSGGGGSGGGGSGSGGSQSALTQPASVSGSPGQSITFSCTGTSSDIGGYNYVSWYQQHPGKAPKLMIYEVSNRPSGVSNRFSGTKSGNTASLTISGLQAEDEADYYCSSYTSSSTLYVFGTGTKLTVLG
# B10: CD22-63: human CD22 scFv SEQ ID NO 138 (protein, listed as Homo sapiens)
# scFv: EVQLQQSGPGLVKPSQTLSLTCAISGDSVLSNSDTWNWIRQSPSRGLEWLGRTYHRSTWYDDYASSVRGRVSINVDTSKNQYSLQLNAVTPEDTGVYYCARDRLQDGNSWSDAFDVWGQGTMVTVSSGGGGSGGGGSGGGGSQSALTQPASVSGSPGQSITISCTGTSSDVGGYNYVSWYQQHPGKAPKLMIYEVSNRPSGVSNRFSGSKSGNTASLTISGLQAEDEADYYCSSYTSSSTLYIFGTGTKVTVLG
# B11: CD22-61: human CD22 scFv SEQ ID NO 136 (protein, listed as Homo sapiens)
# scFv: QVQLQESGPGLVKPSQTLSLTCAISGDSVLSNSDTWNWIRQSPSRGLEWLGRTYHRSTWYDDYASSVRGRVSINVDTSKNQYSLQLNAVTPEDTGVYYCARDRLQDGNSWSDAFDVWGQGTMVTVSSGGGGSGGGGSGSGGSQSALTQPASVSGSPGQSITISCTGTSSDVGGYNYVSWYQQHPGKAPKLMIYEVSNRPSGVSNRFSGSKSGNTASLTISGLQAEDEADYYCSSYTSSSTLYVFGTGTKVTVLG
# B12: CD22-62: human CD22 scFv SEQ ID NO 137 (protein, listed as Homo sapiens)
# scFv: EVQLQQSGPGLVKPSQTLSLTCAISGDSVLSNSDTWNWIRQSPSRGLEWLGRTYHRSTWYDDYASSVRGRVSINVDTSKNQYSLQLNAVTPEDTGVYYCARDRLQDGNSWSDAFDVWGQGTMVTVSSGGGGSGGGGSGGGGSQSALTQPASVSGSPGQSITISCTGTSSDVGGYNYVSWYQQHPGKAPKLMIYDVSNRPSGVSNRFSGSKSGNTASLTISGLQAEDEADYYCSSYTSSSTLYVFGTGTKVTVLG
# Legend:
# [1] = system: Raji, SEM, K562-hCD22, Daudi, and Nalm6; test: Primary T-cell tumor target killing assay; type: cell-based, human; conditions: CD22 expressing luciferase target cell lines
# Source text: Primary T-cells activated and transduced as described above were mixed with target cell lines stably expressing luciferase at the ratios indicated (FIG. 20A-20F). […] Untransduced T-cells (UTD) lacked the ability to kill target cell lines.
# [2] = molecular target: recombinant human CD22-Fc (Homo sapiens, UniProt P20273); test: Surface expression of CD22 CAR in primary human T-cells (Protein-L, rhCD22-Fc); type: cell-based; conditions: day 10, flow cytometry
# Method: Primary human T-cells were activated with anti-CD3/antiCD28 stimulatory beads on day 0, followed by lentiviral transduction of specified CAR constructs on day 1. Cells were expanded in vitro until day, 10 at which point they were analyzed by flow cytometry for surface expression of CAR. Two different approaches were utilized to determine surface expression of CAR: Protein-L-biotin followed by streptavidin-PE, and recombinant human CD22-Fc followed by anti-Fc-alexafluor 488. […] CD22 CAR m971 served as a positive control for binding both Protein-L and hrCD22-Fc, and Isotype CAR with no specificity (anti-gH) served as a positive control for Protein-L. T cells expressing no CAR were used as a negative control.
# CD22 = test: NFAT assay of CD22 CAR in JNL cells on antigen-coated plates; type: cell-based, human; conditions: for function in NFAT assay: plates coated with CD22-FL-Fc, CD22-D567-Fc, CD22-D67
# Method: Several CD22 CAR constructs were functionally validated in an NFAT assay. Briefly the experiments were performed as follows. A lentiviral vector (pELPS) carrying a nucleic acid, encoding a CD22 CAR with a CD22-binding scFv domain was introduced by electroporation into a Jurkat T cell line modified to express luciferase under the control of an NFAT response element (JNL). The cells were cultured and allowed to express the CAR construct. The electroporated cells were applied to a plate coated with the target antigen (CD22). Detection of luciferase signal in the coated plate was indicative of binding activity of the CD22 CAR to its antigen, leading to activation of the T cells and expression of luciferase.
# The results also indicate that the different scFvs compete with m971 to different extents.
# FIG. 72 is a graph showing the activation (in RLU) of several CD22 CAR-expressing JNL cells including CD22-57, CD22-58, CD22-59, CD22-60, CD22-61, CD22-62, and CD22-63, the scFv sequences of which are provided herein. Three different target proteins (CD22-FL-Fc, CD22-D567-Fc, and CD22-D67) were used to coat the tissue culture plates; a negative control (Fc) was also included. A mesothelin binding CAR (Meso-G07) was used as a negative control. CD22-12 and CD22-53 were used as positive controls. […] Domain mapping was performed on CD22 binding domains. Three different forms of antigens were used: CD22 full-length with all 7 external domains, Domain567 (in which domains 1-4 were deleted) and Domain67 (in which domains 1-5 were deleted). While not wishing to be bound by theory, it appears that the binding of various CD22 clones maps to the epitopes illustrated in FIG. 75.
# Two scFvs, named CD22-64 and CD22-65, were produced by affinity maturation of hCD22-12. CAR constructs containing these scFvs were tested for activity in an NFAT assay as described above. […] The bars in the figure represent, from left to right, CD22 full length-Fc; CD22 D567-Fc; and an Fc only negative control used for coating of the plates.
# Raji-Luc and Daudi-Luc = test: IFN-gamma and IL-2 secretion by CD22 CAR primary T cells; type: cell-based, human; conditions: E:T 10 to 1, 20-hr co-culture
# Method: CD22 CAR constructs were also tested for the ability to promote secretion of IFN-gamma and IL-2. Briefly, transduced primary T cells from healthy donors expressing the different CD22 CARs were co-cultured with the CD22-positive target cells Raji-Luc and Daudi-Luc as well as the negative control K562-Luc. T cells and target cell were cultured in an effector-to-target cell ratio (E:T) of 10 to 1. Supernatants were harvested after 20-hr co-culture. […] Similar results were observed when Nalm6-Luc, Pfeiffer-Luc, and K562-CD22-Luc, and SEM-Luc cells were tested (data not shown). Minimal IFN-gamma secretion was observed when the K562-Luc negative control cell line was tested (bottom panel).
Molecule,target cell killing [1],surface expression of CAR [2],function in NFAT assay (CD22),also measured
B1,dose-dependent target cell killing,positive surface expression,,
B2,,,functional,
B3,dose-dependent target cell killing,positive surface expression,,
B4,,,,antigen binding / activation (RLU) vs m971 (CD22; with and without m971 scFv competitor): bind the antigen approximately as well as the m971 positive control; IFN-gamma secretion (Raji-Luc and Daudi-Luc): induced IFN-gamma secretion; relative amount of IFN-gamma (Raji-Luc and Daudi-Luc): highest amounts
B5,dose-dependent target cell killing,positive surface expression,,
B6,,,functional,
B7,dose-dependent target cell killing,positive surface expression,,
B8,,,functional,
B9,,,functional,
B10,,,functional,
B11,,,functional,
B12,,,functional,

# Reference: US10253086B2, “CD20 therapies, CD22 therapies, and combination therapies with a CD19 chimeric antigen receptor (CAR)-expressing cell” (Novartis AG, priority 2015, dated 2019)
